Patent publication US20070207960

Target: full-length, relipidated human tissue factor (UniProt P13726)
Sequence (P13726 33-295): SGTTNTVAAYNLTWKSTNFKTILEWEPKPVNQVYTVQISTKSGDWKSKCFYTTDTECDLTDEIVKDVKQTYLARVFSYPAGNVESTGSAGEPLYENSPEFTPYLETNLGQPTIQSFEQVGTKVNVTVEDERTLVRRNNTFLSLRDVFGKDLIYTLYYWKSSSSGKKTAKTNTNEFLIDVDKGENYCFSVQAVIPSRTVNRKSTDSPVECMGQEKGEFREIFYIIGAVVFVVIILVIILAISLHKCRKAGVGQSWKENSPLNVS

Substance: rFVIIa(K62E)-FFR
- prolongation of the clotting time of human and rabbit plasma (FIG. 6): rFVIIa(K62E)-FFR is a superior inhibitor of coagulation versus both rFVIIa(wt)-FFR and pdFVIIa-FFR at molar ratios of inhibitor:plasma FVII as low as 0.25:1 in both human and rabbit plasma
